# According to the Immune Epitope Database (IEDB):
# What was measured:
# Experiment in all cases: IEDB peptide-MHC binding, purified MHC/competitive/fluorescence; filed as Kd, often an IC50 or EC50 that approximates it; ≥ and ≤ were set here for values at or beyond the usual limits of such assays
# Details in all cases: source organism: Rickettsia akari str. Hartford
# HLA-A*02:12 = target: HLA-A*02:12
# HLA-B*07:02 = target: HLA-B*07:02
# HLA-A*11:01 = target: HLA-A*11:01
# HLA-A*02:19 = target: HLA-A*02:19
# HLA-A*29:02 = target: HLA-A*29:02
# HLA-A*24:03 = target: HLA-A*24:03
# HLA-B*58:01 = target: HLA-B*58:01
# HLA-A*03:01 = target: HLA-A*03:01
# HLA-A*68:02 = target: HLA-A*68:02
# HLA-B*15:17 = target: HLA-B*15:17
sequence,measurement,setting,value
FTARIIIFS,Kd,HLA-A*02:12,≥ 20 µM
same,Kd,HLA-B*07:02,≥ 5 µM
same,Kd,HLA-A*11:01,≥ 5 µM
same,Kd,HLA-A*02:19,≥ 20 µM
same,Kd,HLA-A*29:02,≥ 20 µM
same,Kd,HLA-A*24:03,≥ 20 µM
same,Kd,HLA-B*58:01,≥ 5 µM
same,Kd,HLA-A*03:01,≥ 20 µM
same,Kd,HLA-A*68:02,0.0276 µM
same,Kd,HLA-B*15:17,≥ 20 µM
